How the values were obtained:
[1] = biological target: T1, Recombinant human Glypican-1 protein (Homo sapiens, UniProt P35052); assay: Antigen affinity analysis by ELISA on immobilized recombinant human GPC1; format: binding; conditions: for affinity to antigen (ELISA, OD 450 nm): recombinant human GPC1 coated at 2.5 μg/mL
T1 construct: purchased R&D systems 4519-GP-050
T1 sequence (P35052 24-530 limits assumed): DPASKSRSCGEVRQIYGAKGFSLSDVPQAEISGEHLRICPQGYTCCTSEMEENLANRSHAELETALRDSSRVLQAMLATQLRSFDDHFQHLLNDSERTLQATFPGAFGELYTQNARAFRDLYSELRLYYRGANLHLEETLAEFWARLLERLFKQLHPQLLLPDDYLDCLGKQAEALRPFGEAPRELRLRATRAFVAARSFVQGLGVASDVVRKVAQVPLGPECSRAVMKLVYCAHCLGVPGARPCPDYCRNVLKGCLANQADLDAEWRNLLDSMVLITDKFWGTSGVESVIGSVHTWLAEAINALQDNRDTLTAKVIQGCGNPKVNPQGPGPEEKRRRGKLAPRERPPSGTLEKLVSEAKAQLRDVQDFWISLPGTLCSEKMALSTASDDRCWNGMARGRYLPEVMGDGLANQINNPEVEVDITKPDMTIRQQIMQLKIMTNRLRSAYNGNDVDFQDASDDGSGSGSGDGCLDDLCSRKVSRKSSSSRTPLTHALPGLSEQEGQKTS
Experimental: The buffer used in this Example was prepared as follows.
The primary antibodies used in this Example were prepared. GPC1-CL-MMAF and anti-GPC1 monoclonal antibodies (01a033) were diluted stepwise to 100, 20, 4, 0.8, 0.16, 0.032, 0.0064, 0.00128, 0.000256, 0.0000512, and 0.00001024 nM with a dilution buffer. Recombinant human Glypican-1 proteins (CF, model number: 4519-GP-050, volume: 50 μg) were used as the antigen.
Recombinant human GPC1 was diluted to 2.5 μg/mL with PBS (−) and added to 64 wells of Immuno 96 well MicroWell Solid Plate (Maxisorp, Nunc) at 50 μL/well, and the plate was sealed. The plate was shaken, and liquid was confirmed to spread throughout the plate. Next, the following procedure was followed.
*Dilute (1) GPC1-CL-MMAF and (2) anti-GPC1 monoclonal antibody (01a033) with a dilution buffer in a 10-fold dilution series from 100 nM, and add the mixture to the 96-well microplate at 100 μL/well.
*Dilute Anti-Mouse IgG (H+L) Antibody, Human Serum Adsorbed and Peroxidase labeled (KPL, cat. No.: 474-1806) with a dilution buffer (10% Block Ace) to 0.2 μg/ml (prepare a 5000-fold dilution upon use), and add the mixture to the 96-well microplate at 100 μL/well.
*Return TMB (SurModics, TMBW-1000-01) to normal temperature before use, and add the TMB to the 96-well microplate at 100 μL/well.
*Measure absorbance at 450 nm.
*Analyze data with GraphPad Prism 6.04.

[2] = system: LLC-control-7 cells; assay: In vitro ADC assay, LLC-control-7 cells; format: cell-based; conditions: does not express mouse GPC-1, 72 hours
Experimental: An mGPC1 expression vector (pcDNA3.1-mGPC1) and control vector (pcDNA3.1V5/His) were transfected using Lipofectamine® 2000 into LLC cell strain (mouse lung cancer cell strain). Cells subjected to gene transfer were selected by adding G418 to a medium, and the formed colony was picked up. The expression of mGPC1 was analyzed by FACS using anti-GPC1 antibody clone 01a033. LLC-mGPC1-16 cells were established as an mGPC1 stable expression strain, and LLC-control-7 was established as the control.
Preparation of a conjugate of mouse anti-glypican-1 mAb (01a033), mouse IgG2a (biolegend #400224) as a control, and mc-vc-PAB-MMAF was commissioned to MORADEC. An anticancer agent was conjugated to a cysteine residue via a cleavable linker. The DAR (drug-antibody ratio) was as follows. […]
RPMI1640+10% FBS+100 U/ml penicillin+100 μg/ml streptomycin was used as the medium. […] (3) After 72 hours of culturing, CellTiter-Glo™ Luminescence Cell Viability Assay reagent (Promega) was added and mixed at 100 μL/well. (4) Measurements were taken with a plate reader. […]
The IC50 values were calculated from the following equation (Hossain M M, Hosono-Fukao T, Tang R, Sugaya N, van Kuppevelt T H, Jenniskens G J, Kimata K, Rosen S D, Uchimura K (2010) Direct detection of HSulf-1 and HSulf-2 activities on extracellular heparan sulphate and their inhibition by PI-88. Glycobiology […]: 175-186.) […]

[3] = system: LLC-mGPC1-16; assay: In vivo efficacy test on GPC1 ADC, mouse syngenic model using mGPC1 expressing LLC cell strain
Description: A mouse model (syngenic mouse) with GPC1 expressed in normal cells that is consistent with GPC1 expressed from cancer cells (i.e., both mouse GPC1) can be prepared by grafting the cell strain expressing mouse GPC1 established in Example 16 into mice. The efficacy and safety can be more accurately evaluated in an experiment using such a mouse model.
FIG. 55 schematically depicts the test in this Example. Specifically, 5.0×10^6 cells of LLC-mGPC1-16 were subcutaneously grafted into female C57BL/6 mice. […] The tumor volume and body weight were measured on day 0, day 4, day 8, day 12, day 16, day 20, and day 24.

[4] = Single dose safety test on GPC1 ADC in C57BL/6J mice
Experimental: A single dose (1 ml) of control PBS, control ADC (50 mg/kg), anti-GPC1 ADC (3 mg/kg), anti-GPC1 ADC (15 mg/kg), and anti-GPC1 ADC (50 mg/kg) was intraperitoneally administered on day 1 to a group of 4 male and 4 female C57BL/6J mice (8W). The mice were dissected after 7 days from administration.
*Blood collection (Blood cell count, biochemical test)

[5] = single ip dose, high dose administration group, not GPC1-ADC specific

B1: clone 01a033 (antibody)
heavy: QVQLKQSGPELVKPGASVKISCKASGYSFTGYYMHWVKQSPEKSLEWIGEINPSTGDTTYNQKFKAKATLTVDKSSSTAYMQLKSLTSEDSAVYYCAREKRDDGVFAYWGQGTLVTVSSAKTTAPSVYPLAPVCGDTTGSSVTLGCLVKGYFPEPVTLTWNSGSLSSGVHTFPAVLQSDLYTLSSSVTVTSSTWPSQSITCNVAHPASSTKVDKKIEPRGPTIKPCPPCKCPAPNLLGGPSVFIFPPKIKDVLMISLSPIVTCVVVDVSEDDPDVQISWFVNNVEVHTAQTQTHREDYNSTLRVVSALPIQHQDWMSGKEFKCKVNNKDLPAPIERTISKPKGSVRAPQVYVLPPPEEEMTKKQVTLTCMVTDFMPEDIYVEWTNNGKTELNYKNTEPVLDSDGSYFMYSKLRVEKKNWVERNSYSCSVVHEGLHNHHTTKSFSRTPGK
light: DIVMSQSPKSMSMSVGERVALSCKASENVGTYVSWYQQKPEQSPKLLIYGASNRYTGVPDRFTGSGSATDFTLTISSVQAEDLADYYCGQSYSYPLTFGAGTKLELKRADAAPTVSIFPPSSEQLTSGGASVVCFLNNFYPKDINVKWKIDGSERQNGVLNSWTDQDSKDSTYSMSSTLTLTKDEYERHNSYTCEATHKTSTSPIVKSFNRNEC
[1]
  affinity to antigen (ELISA, OD 450 nm): high affinity
[2]
  effect of suppressing growth against LLC-control-7: low effect of suppressing growth
[3]; 1, 3, 10 mg/kg
  antitumor effect against tumor expressing mouse GPC-1: high antitumor effect

B2: GPC1 ADC (conjugate)
heavy: QVQLKQSGPELVKPGASVKISCKASGYSFTGYYMHWVKQSPEKSLEWIGEINPSTGDTTYNQKFKAKATLTVDKSSSTAYMQLKSLTSEDSAVYYCAREKRDDGVFAYWGQGTLVTVSSAKTTAPSVYPLAPVCGDTTGSSVTLGCLVKGYFPEPVTLTWNSGSLSSGVHTFPAVLQSDLYTLSSSVTVTSSTWPSQSITCNVAHPASSTKVDKKIEPRGPTIKPCPPCKCPAPNLLGGPSVFIFPPKIKDVLMISLSPIVTCVVVDVSEDDPDVQISWFVNNVEVHTAQTQTHREDYNSTLRVVSALPIQHQDWMSGKEFKCKVNNKDLPAPIERTISKPKGSVRAPQVYVLPPPEEEMTKKQVTLTCMVTDFMPEDIYVEWTNNGKTELNYKNTEPVLDSDGSYFMYSKLRVEKKNWVERNSYSCSVVHEGLHNHHTTKSFSRTPGK
light: DIVMSQSPKSMSMSVGERVALSCKASENVGTYVSWYQQKPEQSPKLLIYGASNRYTGVPDRFTGSGSATDFTLTISSVQAEDLADYYCGQSYSYPLTFGAGTKLELKRADAAPTVSIFPPSSEQLTSGGASVVCFLNNFYPKDINVKWKIDGSERQNGVLNSWTDQDSKDSTYSMSSTLTLTKDEYERHNSYTCEATHKTSTSPIVKSFNRNEC
[1]; 01a033 versus 01a033 ADC
  affinity level of ADC compared with unlabeled antibody: about the same
[1]
  affinity to antigen (ELISA, OD 450 nm): high affinity
[3]; 1 mg/kg iv day 0, 4, 8, 12, compared to the control group
  tumor growth: significantly delayed
[3]; 3 mg/kg iv day 0, 4, 8, 12
  tumor growth: Tumor hardly grew
[3]; 10 mg/kg iv day 0, 4, 8, 12
  tumor growth: Tumor hardly grew
[3]; 10 mg/kg, tended to recover after 15 days from the start of administration
  body weight: transient decrease in body weight
[3]; syngenic mice, 1, 3, 10 mg/kg
  toxicity: Significant toxicity was not observed
[4]; single ip dose
  toxicity from the results of the hematological test: Significant toxicity due to ADC administration was not observed
[4]; single ip dose 50 mg/kg
  anemia (hemoglobin): Mild anemia
[4]; single ip dose 3, 15, 50 mg/kg
  amylase: Specific abnormality was not observed
  platelet count: Abnormal platelet count specific to each group was not observed
[4]; single ip dose, groups other than 50 mg/kg (3, 15 mg/kg), 7 days
  change in the body weight: Significant change in the body weight was not observed
[4]; [5]
  liver function (ALT): An abnormality in the liver function was found
  white blood cells: increase in the while blood cells was observed

— US20200308299A1, “ANTI-GPC-1 ANTIBODY” (National University Corporation Kochi University, priority 2017, published 2020)
